We go through three substances from US20090280480A1.

For test [1], the target named is NM, the N-terminal and middle region of Saccharomyces cerevisiae Sup35 (soluble, unpolymerized) (Saccharomyces cerevisiae) (UniProt P05453). Briefly: cell-based or functional assay.
The target in test [2] is Rnq1 preformed fibers (sonicated seed) (Saccharomyces cerevisiae) (UniProt P25367). Nature of the test: cell-based or functional assay.
In test [3] the target is biotinylated NM^K184C seed (fibers) (Saccharomyces cerevisiae) (UniProt P05453). Nature of the test: capture of biotinylated seed (50% w/w) on Streptavidin-coated Dynabeads, SDS wash, scintillation counting.
Chain of biotinylated NM^K184C seed (fibers) (Saccharomyces cerevisiae) (P05453 1-253 K184C): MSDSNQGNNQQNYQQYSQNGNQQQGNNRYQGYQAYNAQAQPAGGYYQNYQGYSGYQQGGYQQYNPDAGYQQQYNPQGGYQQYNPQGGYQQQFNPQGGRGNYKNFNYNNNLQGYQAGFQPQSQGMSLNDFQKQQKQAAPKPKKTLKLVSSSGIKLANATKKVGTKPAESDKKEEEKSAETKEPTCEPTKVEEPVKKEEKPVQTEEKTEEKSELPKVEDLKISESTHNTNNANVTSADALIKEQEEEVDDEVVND

With “Hsp104 (yeast protein-remodeling factor, AAA+ family), His-tag removed (from UniProt P31539 1-908) (enzyme)”, in test [1], the inhibition of NM fibrillization, no nucleotide amounted to 7.6 µM; the inhibition of NM fibrillization, with ADP is 3.1 µM; the inhibition of NM fibrillization, with AMP-PNP amounted to 0.2 µM; the inhibition of NM fibrillization, with ATP hydrolysis came out at 0.1 µM.

“Rnq1 (purified recombinant, soluble) (from UniProt P25367 1-405)” displayed a lag time of Thioflavin T fluorescence with 2% preformed fibers in test [2] of 4.3 h.

For “soluble NM^T158C-iodo[1-14C]acetamide (from UniProt P05453 1-253)”, the fraction of seed-bound NM soluble in SDS at early time points in test [3] amounted to 50%.
